Test results from publication doi:10.1101/2022.03.10.483757 (bioRxiv, 2022).

Biological target: the molecule itself
Assay: crystal structure

B1: His6-tagged SFPQ-276–535 L534I (domain or fragment, human, UniProt P23246 276-535, looked up)
chain: EGFKANLSLLRRPGEKTYTQRCRLFVGNLPADITEDEFKRLFAKYGEPGEVFINKGKGFGFIKLESRALAEIAKAELDDTPMRGRQLRVRFATHAAALSVRNLSPYVSNELLEEAFSQFGPIERAVVIVDDRGRSTGKGIVEFASKPAARKAFERCSEGVFLLTTTPRPVIVEPLEQLDDEDGLPEKLAQKNPMYQKERETPPRFAQHGTFEYEYSQRWKSLDEMEKQQREQVEKNMKDAKDKLESEMEDAYHEHQANIL
- binding result: binds
